Numbered stars: 1 amine (or outer) side, 2 acyl side, 3 side chain; on linkers, the order of the positions; unused ones are H or OH. Bridge positions count the residues as written; N and C are the ends. Square brackets hold non-standard residues; d marks the D form. * marks the point of attachment. F4aao = 4-(carboxymethoxy)-L-phenylalanine, O=C([C@H](Cc1ccc(OCC(=O)[*:3])cc1)N[*:1])[*:2]; X4 = 4‑(carboxymethyl)piperazine‑1‑carbonyl, O=C(O)CN1CCN(C(=O)*)CC1; NH(1-deoxy-D-glucityl) = OC[C@@H](O)[C@@H](O)[C@H](O)[C@@H](O)CN*; PEG4c = amino-tetraoxa (PEG4) carboxylic acid spacer; Phe(3-COOH) = N[C@@H](Cc1cccc(C(=O)O)c1)C(=O)O; NMePhe(3-Cl) = CN[C@@H](Cc1cccc(Cl)c1)C(=O)O; Piperazinyl(4-CH2COOH) = O=C(O)CN1CCN(*)CC1; NMeY = CN[C@@H](Cc1ccc(O)cc1)C(=O)O
Tests used:
[1] = target: T1, human transferrin receptor (hTfR) (human, UniProt P02786 89-760); assay: SPR, pH 6.0
T1 construct: a His tag is implied by the NTA chip and the anti-His capture; also called human TfR; TfR1
T1 sequence (P02786 89-760 limits assumed): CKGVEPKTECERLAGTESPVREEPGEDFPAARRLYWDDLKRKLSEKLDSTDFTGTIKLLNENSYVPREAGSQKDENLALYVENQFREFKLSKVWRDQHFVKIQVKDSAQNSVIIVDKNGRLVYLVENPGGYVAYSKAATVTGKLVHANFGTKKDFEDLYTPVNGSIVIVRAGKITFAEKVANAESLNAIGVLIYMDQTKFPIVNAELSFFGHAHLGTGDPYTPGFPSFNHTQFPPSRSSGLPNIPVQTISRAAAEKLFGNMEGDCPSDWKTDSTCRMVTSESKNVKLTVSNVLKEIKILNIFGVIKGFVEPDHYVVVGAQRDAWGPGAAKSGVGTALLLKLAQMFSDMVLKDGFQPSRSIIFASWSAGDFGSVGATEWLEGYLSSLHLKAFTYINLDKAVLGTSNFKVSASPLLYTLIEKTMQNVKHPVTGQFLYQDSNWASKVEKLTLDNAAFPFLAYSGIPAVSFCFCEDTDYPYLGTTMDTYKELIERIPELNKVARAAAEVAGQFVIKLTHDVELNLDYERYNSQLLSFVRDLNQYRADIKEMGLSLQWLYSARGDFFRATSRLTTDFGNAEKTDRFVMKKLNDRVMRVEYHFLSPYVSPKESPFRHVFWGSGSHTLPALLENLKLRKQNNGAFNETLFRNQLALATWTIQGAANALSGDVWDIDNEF

[2] = target: T1, human transferrin receptor (hTfR); assay: SPR, pH 7.4
[3] = target: T1, human transferrin receptor (hTfR); assay: SPR, KD pH 6.0 / KD pH 7.4
[4] = target: T1, human transferrin receptor (hTfR); assay: SPR, koff pH 6.0 / koff pH 7.4
[5] = target: T1, human transferrin receptor (hTfR); assay: SPR, pH 6.0; remark: listed apart in the source
[6] = target: T1, human transferrin receptor (hTfR); assay: SPR, pH 7.4; remark: listed apart in the source
[7] = target: T2, human transferrin receptor (hTfR) (human, UniProt P02786 89-760); assay: SPR; ratio of KD at pH 6.0 to KD at pH 7.4
T2 construct: also called human TfR; TfR1
T2 sequence (P02786 89-760 limits assumed): as above

[8] = target: T2, human transferrin receptor (hTfR); assay: SPR; ratio of koff at pH 6.0 to koff at pH 7.4
[9] = target: T2, human transferrin receptor (hTfR); assay: SPR, Biacore T200, hTfR immobilised on NTA chip, pH 6.0
[10] = target: T2, human transferrin receptor (hTfR); assay: SPR, Biacore T200, hTfR captured by anti-His antibody on CM3 chip, pH 7.4
[11] = target: T2, human transferrin receptor (hTfR); assay: SPR; ratio of KD at pH 6.0 to KD at pH 7.4; remark: listed apart in the source
[12] = target: T2, human transferrin receptor (hTfR); assay: SPR; ratio of koff at pH 6.0 to koff at pH 7.4; remark: listed apart in the source
[13] = target: T2, human transferrin receptor (hTfR); assay: SPR, Biacore T200, hTfR immobilised on NTA chip, pH 6.0; remark: listed apart in the source
[14] = target: T2, human transferrin receptor (hTfR); assay: SPR, Biacore T200, hTfR captured by anti-His antibody on CM3 chip, pH 7.4; remark: listed apart in the source
[15] = target: T3, human transferrin receptor (hTfR) (human, UniProt P02786 89-760); assay: SPR, Biacore T200, pH 7.4, hTfR captured by anti-His antibody on CM3 chip, single-cycle kinetics
T3 construct: also called human TfR; TfR1
T3 sequence (P02786 89-760 limits assumed): as above

B1: 894_0511 (SEQ ID NO: 38) (peptide)
peptide: {CH2CO}-AV[NMePhe(3-Cl)]VWNY[F4aao](Piperazinyl(4-CH2COOH))IIK(X4)QF[NMeY]C-{PEG4c-NH2}
modifications: thioether N-15
Kd [1]: 14.8 nM | Kd [2]: 4.75 nM | dependency KD pH6.0/7.4 [3]: 3.12 | dependency koff pH6.0/7.4 [4]: 12.5

B2: 894_0512 (SEQ ID NO: 39) (peptide)
peptide: {CH2CO}-AV[NMePhe(3-Cl)]VWNY[F4aao](NH(1-deoxy-D-glucityl))IIE(NH(1-deoxy-D-glucityl))QF[NMeY]C-{PEG4c-NH2}
modifications: thioether N-15
Kd [1]: 12.4 nM | Kd [2]: 1.48 nM | dependency KD pH6.0/7.4 [3]: 8.37 | dependency koff pH6.0/7.4 [4]: 25.6

B3: 894_0610 (SEQ ID NO: 61) (peptide)
peptide: AVXVXNYYIIKRYXC
modifications: 3 MeF3C; 5 3Imp; 14 MeY; chloroacetyl-Ala1 cyclised to Cys15; linker PEG4c after Cys15; terminus -NH2
Kd [5]: 7.47 nM | Kd [6]: 0.861 nM

B4: 894_3434 (SEQ ID NO: 64) (peptide)
peptide: AVXVWNYXIIRRYXC
modifications: 3 MeF; 8 F4aao(PEG8Me); 14 MeY; chloroacetyl-Ala1 cyclised to Cys15; linker G-KN3 after Cys15; terminus -NH2
notes: The linker G-KN3 (Gly, N6-diazo-L-lysine) follows Cys15; whether the listing entry holds these two residues cannot be seen here
Kd [5]: 32.3 nM | Kd [6]: 8.74 nM

B5: 894_0518 (SEQ ID No. 72) (peptide)
peptide: {CH2CO}-AV[NMePhe(3-Cl)]VWNY[F4aao]IIQR[Phe(3-COOH)][NMeY]C-PEG4c
modifications: thioether N-15
notes: As printed: A-V-MeF3C-V-W-N-Y-F4aao-I-I-Q-R-F3COO-MeY-C, linker PEG4c
dependency KD pH6.0/7.4 [7]: 1.89 | dependency koff pH6.0/7.4 [8]: 5.72 | Kd [9]: 6.32 nM | Kd [10]: 3.34 nM

B6: 894_0530 (SEQ ID No. 80) (peptide)
peptide: AVXVWNYXIIQRXXC
modifications: MeF3C at 3; F4OMe at 8; Eva at 9; F3COO at 13; MeF4COO at 14; cyclic: chloroacetylated N-terminal Ala 1 joined to Cys 15; linker PEG4c on C-terminus
notes: As printed: A-V-MeF3C-V-W-N-Y-F4OMe-Eva-I-Q-R-F3COO-MeF4COO-C, linker PEG4c
dependency KD pH6.0/7.4 [7]: 10.8 | dependency koff pH6.0/7.4 [8]: 22.2 | Kd [9]: 5.73 nM | Kd [10]: 0.529 nM

B7: 894_0531 (SEQ ID No. 81) (peptide)
peptide: AVXVWNYXIIQRXXC
modifications: MeF3C at 3; F4OMe at 8; Eva at 9; F3COO at 13; MeF3COO at 14; cyclic: chloroacetylated N-terminal Ala 1 joined to Cys 15; linker PEG4c on C-terminus
notes: As printed: A-V-MeF3C-V-W-N-Y-F4OMe-Eva-I-Q-R-F3COO-MeF3COO-C, linker PEG4c
dependency KD pH6.0/7.4 [7]: 4.91 | dependency koff pH6.0/7.4 [8]: 13.5 | Kd [9]: 9.19 nM | Kd [10]: 1.87 nM

B8: 894_0591 (SEQ ID No. 117) (peptide)
peptide: AVXVXNYYXIKRYXC
modifications: not fully specified; MeF at 3; MeW at 5; Eva at 9; MeY at 14; cyclic: chloroacetylated N-terminal Ala 1 joined to Cys 15; linker PEG4c on C-terminus
notes: As printed: A-V-MeF-V-MeW-N-Y-Y-Eva-I-K-R-Y-MeY-C, linker PEG4c
dependency KD pH6.0/7.4 [11]: 1.81 | dependency koff pH6.0/7.4 [12]: 3.29 | Kd [13]: 13.8 nM | Kd [14]: 7.64 nM

B9: 894_0592 (SEQ ID No. 118) (peptide)
peptide: AVXVXNYYIIKRYXC
modifications: not fully specified; MeF at 3; MeW at 5; MeF4COO at 14; cyclic: chloroacetylated N-terminal Ala 1 joined to Cys 15; linker PEG4c on C-terminus
notes: As printed: A-V-MeF-V-MeW-N-Y-Y-I-I-K-R-Y-MeF4COO-C, linker PEG4c
dependency KD pH6.0/7.4 [11]: 3.88 | dependency koff pH6.0/7.4 [12]: 4.21 | Kd [13]: 4.31 nM | Kd [14]: 1.11 nM

B10: 894_3493 (SEQ ID NO: 198) (peptide)
peptide: AVXVWNRYIIRRYXC
modifications: MeF at 3; MeF4COO at 14; N-terminal Ala chloroacetylated and cyclised by thioether to Cys 15; linker G-de-de-de-ds-ds-KN3-NH2 on Cys 15 (de = D-Glu, ds = D-Ser, KN3 = azido-lysine, C-terminal amide)
notes: Cyclic peptide with linker
Kd [15]: 1040 nM

B11: 894_3495 (SEQ ID NO: 199) (peptide)
peptide: AVXVWNRYIIRRYXC
modifications: MeF at 3; MeY at 14; N-terminal Ala chloroacetylated and cyclised by thioether to Cys 15; linker G-de-de-de-ds-ds-KN3-NH2 on Cys 15 (de = D-Glu, ds = D-Ser, KN3 = azido-lysine, C-terminal amide)
notes: Cyclic peptide with linker
Kd [15]: 531 nM

From patent publication EP4667483A1 (JCR Pharmaceuticals Co., Ltd., dated 2024)
